From patent US20260250403A1 (BIOCYTOGEN PHARMACEUTICALS BEIJING, published 2026) come the findings set out here.

For test [1], the target named is T1, hCD40-His (Human CD40 protein having a His-Tag, Beijing ACROBiosystems Co. Ltd., Cat #: CD0-H5228) (human, UniProt P25942 21-193).
T1 construct: Bought protein; not shown: His tag
Kind of test: SPR, Biacore 8K, Protein A chip, CD40-His as analyte, 1:1 Langmuir fit. On the procedure:
(§1) Purified anti-CD40 antibodies at concentrations of 1 μg/ml with 1×HBS-EP+ buffer (PH 7.4) were then injected at 1 μl/min for 50 seconds. Dissociation was monitored for 400 seconds. The chip was regenerated after the last injection of each titration with a glycine solution (pH 2.0) at 30 μl/min for 30 seconds.
For orientation: Surface plasmon resonance follows binding to a sensor surface in real time, without labels.

Test [2] addresses T2, fasCD40-His (Cynomolgus CD40/TNFRSF5 Protein, His Tag, Beijing ACRO Biosystems Co. Ltd., Cat #: CD0-C52H6) (Macaca fascicularis, UniProt G7PG38 21-193).
T2 construct: Bought protein; also called monkey (Macaca fascicularis) CD40; not shown: His tag
The test is described as above. On the procedure:
as §1

Test [3] concerns the target T3, dCD40-His (CD40 Protein, Canine, Recombinant (His Tag), Sino Biological Inc., Cat #: 70105-D08H) (dog, UniProt Q7YRL5 21-194).
T3 construct: Bought protein; also called dog CD40; not shown: His tag
T3 sequence (looked up): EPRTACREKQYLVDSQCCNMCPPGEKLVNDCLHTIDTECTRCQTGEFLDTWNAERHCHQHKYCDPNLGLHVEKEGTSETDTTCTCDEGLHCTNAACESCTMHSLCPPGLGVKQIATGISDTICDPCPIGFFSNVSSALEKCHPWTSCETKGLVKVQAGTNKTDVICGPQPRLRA
Described as above. On the procedure:
as §1

The target in test [4] is hFcRn-His (FCGRT&B2M Heterodimer Protein, His Tag&Strep II Tag, Beijing ACROBiosystems Co. Ltd., Cat #: FCM-H5286) (human) (UniProt P61769). Nature of the test: SPR, Biacore 8K or T200, Protein A chip, steady state affinity model, pH 6.0; pH 6.0.
Sequence of hFcRn-His (FCGRT&B2M Heterodimer Protein, His Tag&Strep II Tag, Beijing ACROBiosystems Co. Ltd., Cat #: FCM-H5286) (human) (chain, as listed by the source limits assumed, chain 1 of 2): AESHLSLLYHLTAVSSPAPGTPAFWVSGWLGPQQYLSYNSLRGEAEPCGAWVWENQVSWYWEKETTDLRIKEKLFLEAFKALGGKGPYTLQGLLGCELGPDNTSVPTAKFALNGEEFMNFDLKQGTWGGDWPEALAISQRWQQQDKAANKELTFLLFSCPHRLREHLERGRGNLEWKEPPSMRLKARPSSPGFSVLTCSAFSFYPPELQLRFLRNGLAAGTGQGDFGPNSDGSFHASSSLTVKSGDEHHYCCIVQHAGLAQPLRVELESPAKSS
Sequence of hFcRn-His (FCGRT&B2M Heterodimer Protein, His Tag&Strep II Tag, Beijing ACROBiosystems Co. Ltd., Cat #: FCM-H5286) (human) (P61769 21-119 limits assumed, chain 2 of 2): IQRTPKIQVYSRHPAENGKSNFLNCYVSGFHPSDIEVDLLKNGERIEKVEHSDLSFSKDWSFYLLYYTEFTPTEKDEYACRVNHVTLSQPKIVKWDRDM

In general, Kd refers to a measure of binding affinity in units of concentration. As usually defined, the koff is the rate constant with which the complex falls apart. By kon is commonly meant the second-order rate constant of association.

T1 sequence (P25942 21-193 limits assumed): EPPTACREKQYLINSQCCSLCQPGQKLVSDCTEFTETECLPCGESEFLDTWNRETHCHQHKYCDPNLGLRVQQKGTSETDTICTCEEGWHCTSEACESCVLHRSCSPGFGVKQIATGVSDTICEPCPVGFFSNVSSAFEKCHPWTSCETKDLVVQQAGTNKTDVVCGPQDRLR

B1: 2F8-IgG4-FLAA (antibody, V domains shown)
VH: EVQLVQSGGGVVQPGRSLRLSCAASGFSFSSYAMHWVRQVPGKGLEWVSVISYDGDNKYHAESVKGRFTISRDNSKNILYLQMNSLRPEDTAVYYCARRGTVTNYYSYSGLDVWGQGTTVTVSS
VL: DIQLTQSPLSLPVTPGEPASISCRSSQSLLYSNGKNYLDWYLQKPGQSPQLLIYLASNRASGVPDRFSGSGSGTDFTLKISRVEAEDVGVYFCMQALQTPRTFGQGTKVEIKR
notes: Rest: human IgG4 constant regions with FLAA mutations (F234A and L235A, EU numbering)
Take B1: in test [1], the Kd turned out to be 0.351 nM, the koff was found to be 0.000229 s⁻¹ and the kon turned out to be 654000 M⁻¹ s⁻¹. Also, in test [2], the Kd was determined as 0.301 nM, the koff was determined as 0.000297 s⁻¹ and the kon was found to be 989000 M⁻¹ s⁻¹. Also, in test [3], the dissociation constant Kd came to 5.18 nM, the off-rate constant (koff) turned out to be 0.00266 s⁻¹ and the association rate constant (kon) amounted to 513000 M⁻¹ s⁻¹.

B2: 12B5-IgG4-FLAA (antibody, V domains shown)
VH: QVQLVQSGPGLVKPSETLSLTCTVSGGSISYYYWSWIRQPPGKGLEWIGHISYSGSTNYNPSLKSRVTISEDTSKKQFSLKLDSVTAADTAVYYCAGGIVGARRGFDFWGQGTLVTVSS
VL: EIVMTQSPATLSLSPGERATLSCRASQSVSNNLAWYQQKPGQAPRLLIYDASNRAADIPARFSGSGSGTDFTLTISSLEPEDFAVYYCQQRNNWPPTFGQGTKVEIKR
notes: Rest: human IgG4 constant regions with FLAA mutations (F234A and L235A, EU numbering); copies: 2 + 2
B2: the Kd worked out at 0.735 nM in test [1], 0.495 nM in test [2], 32.1 nM in test [3] and 497 nM in test [4]. Further, the koff in test [1] was found to be 0.000389 s⁻¹; in test [2], 0.000265 s⁻¹; in test [3], 0.0129 s⁻¹. Moreover, the kon worked out at 529000 M⁻¹ s⁻¹ in test [1], 535000 M⁻¹ s⁻¹ in test [2] and 401000 M⁻¹ s⁻¹ in test [3].

B3: 6A4-IgG4-FLAA (antibody, V domains shown)
VH: QVQLVQSGGGLVQPGGSLRLSCAASGFTFSNYVMSWVRQAPGKGLEWVSTIRGSGISTYYTDSVKGRFTTSRDNPKNTLFLQMSSLRAEDTAVYYCAKGIVGATTPFDYWGQGTLVTVSS
VL: EIVLTQSPATLSLSPGERATLSCRASQSVRSFLAWYQQKPGQAPRLLIYETSNRATGIPARFSGSGSGTDFTLTISSLEPEDFAVYYCQQRSDWPPTFGQGTKVEIKR
notes: as for B1
Turning to B3, in test [1], the Kd was 1.66 nM, the koff worked out at 0.000511 s⁻¹ and the kon is 309000 M⁻¹ s⁻¹. In test [2], this molecule had a Kd of 51.7 nM, a koff of 0.0149 s⁻¹ and a kon of 288000 M⁻¹ s⁻¹.

B4: Bleselumab analog (antibody, human IgG4, V domains shown)
VH: QLQLQESGPGLLKPSETLSLTCTVSGGSISSPGYYGGWIRQPPGKGLEWIGSIYKSGSTYHNPSLKSRVTISVDTSKNQFSLKLSSVTAADTAVYYCTRPVVRYFGWFDPWGQGTLVTVSS
VL: AIQLTQSPSSLSASVGDRVTITCRASQGISSALAWYQQKPGKAPKLLIYDASNLESGVPSRFSGSGSGTDFTLTISSLQPEDFATYYCQQFNSYPTFGQGTKVEIKR
In test [1], B4 gave a Kd of 1.59 nM, a dissociation rate constant (koff) of 0.000682 s⁻¹ and an on-rate (kon) of 429000 M⁻¹ s⁻¹. In test [2], this molecule showed a Kd of 3.35 nM, a koff of 0.000907 s⁻¹ and an on-rate (kon) of 270000 M⁻¹ s⁻¹.
